The Kd is the free concentration of one partner at which half of the binding sites on the other are occupied at equilibrium, for simple one-to-one binding. What is called koff is a measure of how fast the partners let go of each other. What is called kon is the second-order rate constant of association.

The results in this text go back to US20230374132A1 (Innovent, published 2023).

Positions count from the first letter of the chain named. Names may count otherwise.

Sequences and labels used below:
B1: hzsp34.12 (antibody, human IgG1, lambda, L234A L235A, V domains shown)
VH: EVQLVESGGGLVQPGGSLKLSCAASGFTFNTYAMNWVRQASGKGLEWVGRIRSKYNNYATYYADSVKDRFTISRDDSKNTLYLQMNSLKTEDTAVYYCARHGNFGNSYVSWFAYWGQGTTVTVSS
VL: QAVVTQEPSLTVSPGGTVTLTCRSSTGAVTTSNYANWVQQKPGQAPRTLIGGTNKRAPGVPARFSGSLLGGKAALTLLGAQPEDEAEYYCALWYSNLWVFGQGTKLTVLG
notes: IgG1 L234A L235A, lambda
B2: hzsp34.33 (antibody, human IgG1, kappa, L234A L235A, V domains shown)
VH: B1 VH with N79S
VL: EIVMTQSPATLSVSPGERATLSCRSSTGAVTTSNYANWVQQKPGQAPRLLIGGTNKRAPGVPARFSGSGSGTEFTLTISSLQSEDFAVYYCALWYSNLWVFGQGTKLTVLR
notes: IgG1 L234A L235A, kappa
B3: hzsp34.28 (antibody, human IgG1, kappa, L234A L235A, V domains shown)
VH: B1 VH with N79S
VL: B2 VL with V39Y, G52Y, V61I
notes: IgG1 L234A L235A, kappa
B4: Her2-hzsp34.24 (bispecific antibody, IgG1, V domains shown)
VH 1: not shown
VL 1: not shown
VH 2: B1 VH with N79S, N106Q
VL 2: QAVVTQEPSLTVSPGGTVTLTCRSSTGAVTTSNYANWVQQKPGQAPRGLIGGTNKRAPGVPARFSGSLLGDKAALTLLGAQPEDEAEYYCALWYSNLWVFGQGTKLTVL
notes: 1+1 trastuzumab x hzsp34.24, IgG1 LALA knob-into-hole; also called Her2-sp34.24; copies: 1 + 1 + 1 + 1
B5: Her2-hzsp34.80 (bispecific antibody, IgG1, V domains shown)
VH 1: not shown
VL 1: not shown
VH 2: B1 VH with Y32A, N79S, N106Q
VL 2: B4 VL 2
notes: 1+1 trastuzumab x hzsp34.80, IgG1 LALA knob-into-hole; also called Her2-sp34.80; copies: 1 + 1 + 1 + 1
B6: Her2-hzsp34.87 (bispecific antibody, IgG1, V domains shown)
VH 1: not shown
VL 1: not shown
VH 2: B1 VH with N79S, G102Y, N106Q
VL 2: B4 VL 2
notes: 1+1 trastuzumab x hzsp34.87, IgG1 LALA knob-into-hole; also called Her2-sp34.87; copies: 1 + 1 + 1 + 1
B7: Her2-hzsp34.99 (bispecific antibody, IgG1, V domains shown)
VH 1: not shown
VL 1: not shown
VH 2: B1 VH with N79S, F104A, G105Y, N106Q
VL 2: B4 VL 2
notes: 1+1 trastuzumab x hzsp34.99, IgG1 LALA knob-into-hole; also called Her2-sp34.99; copies: 1 + 1 + 1 + 1
B8: Her2-hzsp34.97 (bispecific antibody, IgG1, V domains shown)
VH 1: not shown
VL 1: not shown
VH 2: B1 VH with Y55A, N56G, N57G, N79S, N106Q
VL 2: B4 VL 2
notes: 1+1 trastuzumab x hzsp34.97, IgG1 LALA knob-into-hole; also called Her2-sp34.97; copies: 1 + 1 + 1 + 1
B9: Her2-hzsp34.101 (bispecific antibody, IgG1, V domains shown)
VH 1: not shown
VL 1: not shown
VH 2: B1 VH with N79S, N106Q, Y108A, V109A
VL 2: B4 VL 2
notes: 1+1 trastuzumab x hzsp34.101, IgG1 LALA knob-into-hole; also called Her2-sp34.101; copies: 1 + 1 + 1 + 1

T2 sequence (Q95LI5 22-117, chain 1 of 2): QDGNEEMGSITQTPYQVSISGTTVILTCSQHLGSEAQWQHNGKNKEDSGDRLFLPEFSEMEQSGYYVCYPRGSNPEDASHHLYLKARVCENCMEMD
T2 sequence (Q95LI8 22-105, chain 2 of 2): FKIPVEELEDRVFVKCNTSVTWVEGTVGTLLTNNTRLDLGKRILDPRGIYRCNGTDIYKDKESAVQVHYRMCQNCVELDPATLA
T1 sequence (P07766 23-126, chain 1 of 2): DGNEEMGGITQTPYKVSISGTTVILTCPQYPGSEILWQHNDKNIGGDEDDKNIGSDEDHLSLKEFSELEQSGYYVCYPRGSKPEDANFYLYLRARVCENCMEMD
T1 sequence (P04234 22-105, chain 2 of 2): as the sequence (Q95LI8 22-105, chain 2 of 2) above, with V5I, K15N, V20I, T32S, N33D, N34I, A64T, N74S, L83V counted along it

One experiment concerns the target T1, human CD3 E&D complex protein (Sino Biological Inc., CT026H0323H) (human, UniProt P07766 23-126; P04234 22-105).
T1 construct: bought heterodimer; also called human CD3 protein (CT026H0323H)
Nature of the experiment: BLI, antibody on sensor. As for the experimental part: (§1) 100 μl SD buffer, various antibodies, human CD3 E&D complex protein (Sino Biological Inc., CT026H0323H), and cynomolgus monkey CD3 E&D complex protein (Sino Biological Inc., CT032-00323H) were added into 96-well black polystyrene semi-quantitative micro-well plate (Greiner, 675076) respectively. Fortebio Octet Red 96 was used for detection, and the sensor position was selected according to the sample position. The setting parameters of the instrument are as follows: operation steps: Baseline, Loading-1 nm, Baseline, Association and Dissociation; the operation time of each step depends on the speed of sample association and dissociation. The rotational speed is 1000 rpm and the temperature is 30° C. ForteBio Octet analysis software was used to analyze KD value.
In general terms: BLI is a label-free optical method that tracks binding on a fibre tip over time.
On to B1, for which the Kd turned out to be 6.19 nM, the koff turned out to be 0.00396 s⁻¹ and the kon was determined as 640000 M⁻¹ s⁻¹.
Consider B2, for which the binding result is reported as “no binding”.
On the same count and under the same terms, the same measure for B3: “no binding”.

The next experiment concerns the target T2, cynomolgus monkey CD3 E&D complex protein (Sino Biological Inc., CT032-00323H) (cynomolgus monkey, UniProt Q95LI5 22-117; Q95LI8 22-105).
T2 construct: bought heterodimer
Description: BLI, antibody on sensor. How it is done:
as §1
Molecule B1 registered a Kd of 4.73 nM, a koff of 0.00226 s⁻¹ and an on-rate (kon) of 479000 M⁻¹ s⁻¹.
For the molecule B2, the binding result is listed as “no binding”.
Regarding B3, the Kd was 2.82 nM, the koff worked out at 0.00117 s⁻¹ and the kon came out at 415000 M⁻¹ s⁻¹.

The target in the next experiment is T3, human CD3E&G complex (Sino Biological Inc., CT041-H0305H) (human, UniProt P07766 23-126; P09693 23-116).
T3 construct: bought heterodimer; also called human CD3E&G antigen
T3 sequence (P07766 23-126, chain 1 of 2): as the sequence (P07766 23-126, chain 1 of 2) above
T3 sequence (P09693 23-116, chain 2 of 2): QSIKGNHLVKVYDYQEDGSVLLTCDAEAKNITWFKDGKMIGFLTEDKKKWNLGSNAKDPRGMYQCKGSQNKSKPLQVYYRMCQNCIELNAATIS
Description: SPR, antigen on chip. How it is done: (§2) The CD3 equilibrium dissociation constant (KD) of Her2×CD3 bispecific antibody was determined using Biacore (GE Healthcare, T200), and the specific method is as follows:
(§3) The human CD3E&G antigen (Sino Biological Inc., CT041-H0305H) and Cynomolgus monkey CD3E&D antigen protein (Sino Biological Inc., CT032-00323H) were coupled to the chip surface. Afterwards, the affinity and kinetic constants were obtained by detecting the binding and dissociation between the chip surface antigen and the antibody in the mobile phase. The method includes chip preparation and affinity detection. 10-fold diluted 10×HBS-EP+(BR-1006-69, GE Healthcare) was used as the experimental buffer during measurement. […] After coupling, 1 M ethanolamine was injected to block the remaining activation sites. Affinity detection cycle is carried out for each concentration of antibody, and each cycle includes binding to antibody with this concentration and chip regeneration. The antibody after serial dilution (Her2-sp34.24: initial concentration 32 nM, 2 folds serial dilution; Her2-sp34.87: initial concentration 200 nM, 2 folds serial dilution; Her2-sp34.80, Her2-sp34.97, Her2-sp34.99, Her2-sp34.101: initial concentration 800 nM, 2 folds serial dilution; all dilute 5 concentration points), flows through the chip surface from low concentration to high concentration at 30 μl/min of the flow rate, with a binding time of 180 s and a dissociation time of 600 s. Finally, 10 mM Glycine pH 1.5 (BR-1003-54, GE Healthcare) was used to regenerate the chip. The data results were analyzed using the Biacore T200 analysis software (version 3.1), and the analysis model used was 1:1 combined model for dynamic analysis.
A general note: Surface plasmon resonance follows binding to a sensor surface in real time, without labels.
The molecule B4 returned a Kd of 4.88 nM, a koff of 0.00779 s⁻¹ and a kon of 1.6e+06 M⁻¹ s⁻¹.
The like results for B5 were, in that order, 987 nM, 0.491 s⁻¹ and 497000 M⁻¹ s⁻¹.
The like results for B6 were, in that order, 141 nM, 0.0462 s⁻¹ and 327000 M⁻¹ s⁻¹.
Regarding B7, binding was characterised by a dissociation constant (Kd) of 627 nM, the koff was found to be 0.0817 s⁻¹ and the association rate constant (kon) is 130000 M⁻¹ s⁻¹.
The like results for B8 were, in that order, 361 nM, 0.191 s⁻¹ and 528000 M⁻¹ s⁻¹.
The like results for B9 were, in that order, 159 nM, 0.101 s⁻¹ and 637000 M⁻¹ s⁻¹.

A further experiment has as its target T2, cynomolgus monkey CD3 E&D complex …. Description: SPR, antigen on chip. How it is done:
as §2, §3
On to B4, for which the Kd came out at 7.2 nM, the koff is 0.008 s⁻¹ and the kon came to 1.11e+06 M⁻¹ s⁻¹.
The matching figures for B5: 1310 nM, 0.78 s⁻¹ and 596000 M⁻¹ s⁻¹.
Molecule B6 showed a Kd of 242 nM, a koff of 0.035 s⁻¹ and a kon of 145000 M⁻¹ s⁻¹.
B7 registered a Kd of 1200 nM, a koff of 0.1 s⁻¹ and a kon of 83400 M⁻¹ s⁻¹.
Molecule B8 had a Kd of 327 nM, a koff of 0.177 s⁻¹ and a kon of 543000 M⁻¹ s⁻¹.
The matching figures for B9: 179 nM, 0.0987 s⁻¹ and 551000 M⁻¹ s⁻¹.
